The record followed here is US20240360227A1.

Where a chain is given by its changes, count along the chain named.

Sequences and labels used below:
B1: VRDN-02049 (antibody, V domains shown)
VH: QVQLQESGPGLVKPSETLSLTCTVSGYSITGGYLWNWIRQPPGKGLEWIGYISYDGTNNYKPSLKDRVTISRDTSKNQFSLKLSSVTAADTAVYYCARYGRVFFDYWGQGTLVTVSS
VL: DIVMTQSPLSLPVTPGEPASISCRSSQSIVHSNGNTYLQWYLQKPGQSPQLLIYKVSNRHYGVPDRFSGSGSGTDFTLKISRVEAEDVGVYYCFQGSHVPWTFGQGTKVEIK
B2: VRDN-02052 (antibody, V domains shown)
VH: B1 VH
VL: B1 VL with H60L, Q95H
B3: VRDN-02064 (antibody, V domains shown)
VH: B1 VH with Y99H
VL: B1 VL with H60L, Q95H
B4: VRDN-02053 (antibody, V domains shown)
VH: B1 VH
VL: B1 VL with H60L, G96H
B5: VRDN-02060 (antibody, V domains shown)
VH: B1 VH with D55H
VL: B1 VL with S26H, H60L
B6: VRDN-02006 (antibody, V domains shown)
VH: B1 VH with G31H
VL: B1 VL with H60L
B7: VRDN-02067 (antibody, V domains shown)
VH: B1 VH with Y99H
VL: B1 VL with H60L, P100H
B8: VRDN-02062 (antibody, V domains shown)
VH: B1 VH with S53H
VL: B1 VL with H60L, Q95H
B9: VRDN-02066 (antibody, V domains shown)
VH: B1 VH with D55H
VL: B1 VL with H60L, P100H
B10: VRDN-02054 (antibody, V domains shown)
VH: B1 VH
VL: B1 VL with H60L, S97H
B11: VRDN-02068 (antibody, V domains shown)
VH: B1 VH with S53H
VL: B1 VL with H60L, W101H
B12: VRDN-02051 (antibody, V domains shown)
VH: B1 VH
VL: B1 VL with H60L, F94H
B13: VRDN-02058 (antibody, V domains shown)
VH: B1 VH
VL: B1 VL with H60L, T102H
B14: VRDN-02065 (antibody, V domains shown)
VH: B1 VH with S53H
VL: B1 VL with H60L, P100H
B15: VRDN-02056 (antibody, V domains shown)
VH: B1 VH
VL: B1 VL with H60L, P100H
B16: VRDN-02069 (antibody, V domains shown)
VH: B1 VH with D55H
VL: B1 VL with H60L, W101H
B17: VRDN-02071 (antibody, V domains shown)
VH: B1 VH with S53H, Y99H
VL: B1 VL with S26H, H60L, Q95H
B18: VRDN-02061 (antibody, V domains shown)
VH: B1 VH with Y99H
VL: B1 VL with S26H, H60L
B19: VRDN-02005 (antibody, V domains shown)
VH: B1 VH with T30H
VL: B1 VL with H60L
B20: VRDN-02070 (antibody, V domains shown)
VH: B1 VH with Y99H
VL: B1 VL with H60L, W101H
B21: VRDN-02063 (antibody, V domains shown)
VH: B1 VH with D55H
VL: B1 VL with H60L, Q95H
B22: VRDN-02057 (antibody, V domains shown)
VH: B1 VH
VL: B1 VL with H60L, W101H
B23: VRDN-02050 (antibody, V domains shown)
VH: B1 VH
VL: B1 VL with H60L, Y61H
B24: VRDN-02055 (antibody, V domains shown)
VH: B1 VH
VL: B1 VL with H60L, V99H

The first test deals with Recombinant human his-tagged IGF R extracellular domain protein (human) (UniProt P08069). Kind of test: SPR, Ab captured via anti-huIgG Fc, pH 7.4. (Surface plasmon resonance follows binding to a sensor surface in real time, without labels.)
One may read the Kd as the concentration at which binding is half-saturated. The koff is the rate constant with which the complex falls apart. The kon is the rate constant with which the complex forms. For B1, the Kd turned out to be 0.946 nM, the koff came to 7.92e-05 s⁻¹ and the kon is 83700 M⁻¹ s⁻¹.
Taken in the same sequence, the figures for B2 were 0.564 nM, 5.7e-05 s⁻¹ and 101000 M⁻¹ s⁻¹.
For B3 the same measures were 0.235 nM, 2.48e-05 s⁻¹ and 106000 M⁻¹ s⁻¹.
On to B4, for which the Kd worked out at 7.18 nM, the koff was 0.00243 s⁻¹ and the kon stood at 338000 M⁻¹ s⁻¹.
For B5 the same measures were 0.249 nM, 2.77e-05 s⁻¹ and 111000 M⁻¹ s⁻¹.
For B6 the same measures were 1.08 nM, 8.49e-05 s⁻¹ and 78500 M⁻¹ s⁻¹.
Taken in the same sequence, the figures for B7 were 0.25 nM, 2.75e-05 s⁻¹ and 110000 M⁻¹ s⁻¹.
Regarding B8, the Kd was found to be 0.225 nM, the koff came to 2.13e-05 s⁻¹ and the kon turned out to be 94300 M⁻¹ s⁻¹.
For B9 the same measures were 0.278 nM, 3.12e-05 s⁻¹ and 112000 M⁻¹ s⁻¹.
Taken in the same sequence, the figures for B10 were 0.838 nM, 6.19e-05 s⁻¹ and 73900 M⁻¹ s⁻¹.
Taken in the same sequence, the figures for B11 were 0.249 nM, 2.87e-05 s⁻¹ and 115000 M⁻¹ s⁻¹.
For the molecule B12, the Kd stood at 1.03 nM, the koff amounted to 7.59e-05 s⁻¹ and the kon is 74000 M⁻¹ s⁻¹.
Taken in the same sequence, the figures for B13 were 0.836 nM, 8.5e-05 s⁻¹ and 102000 M⁻¹ s⁻¹.
For B14 the same measures were 0.22 nM, 2.54e-05 s⁻¹ and 116000 M⁻¹ s⁻¹.
For B15, the dissociation constant Kd amounted to 0.237 nM, the koff is 1.98e-05 s⁻¹ and the kon came to 83500 M⁻¹ s⁻¹.
Taken in the same sequence, the figures for B16 were 0.137 nM, 1.52e-05 s⁻¹ and 111000 M⁻¹ s⁻¹.
For B17 the same measures were 0.103 nM, 1.09e-05 s⁻¹ and 105000 M⁻¹ s⁻¹.
Taken in the same sequence, the figures for B18 were 0.28 nM, 2.65e-05 s⁻¹ and 94700 M⁻¹ s⁻¹.
For the molecule B19, the Kd worked out at 0.71 nM, the koff came to 6.09e-05 s⁻¹ and the kon was 85800 M⁻¹ s⁻¹.
Taken in the same sequence, the figures for B20 were 0.322 nM, 3.38e-05 s⁻¹ and 105000 M⁻¹ s⁻¹.
As for B21, the Kd turned out to be 0.19 nM, the koff is 2.11e-05 s⁻¹ and the kon is 111000 M⁻¹ s⁻¹.
For the molecule B22, the Kd worked out at 0.72 nM, the koff was determined as 6.9e-05 s⁻¹ and the kon is 95800 M⁻¹ s⁻¹.
For B23 the same measures were 0.603 nM, 6.7e-05 s⁻¹ and 111000 M⁻¹ s⁻¹.
As to B24, the Kd was 0.509 nM, the koff was 4.92e-05 s⁻¹ and the kon came out at 96600 M⁻¹ s⁻¹.

A further test has the same target. Kind of test: SPR, Ab captured via anti-huIgG Fc, dissociation at pH 6.
With B1, the Kd turned out to be 1.15 nM, the koff was 9.15e-05 s⁻¹ and the kon amounted to 79500 M⁻¹ s⁻¹.
On to B2, for which the dissociation constant Kd stood at 1.33 nM, the koff came to 0.000156 s⁻¹ and the kon came out at 117000 M⁻¹ s⁻¹.
Taken in the same sequence, the figures for B3 were 0.145 nM, 2.27e-05 s⁻¹ and 157000 M⁻¹ s⁻¹.
Taken in the same sequence, the figures for B4 were 3.48 nM, 0.000193 s⁻¹ and 55600 M⁻¹ s⁻¹.
Consider B5, for which the Kd worked out at 0.394 nM, the koff came out at 6.07e-05 s⁻¹ and the kon is 154000 M⁻¹ s⁻¹.
Taken in the same sequence, the figures for B6 were 1.1 nM, 0.000101 s⁻¹ and 92300 M⁻¹ s⁻¹.
Taken in the same sequence, the figures for B7 were 0.31 nM, 5.44e-05 s⁻¹ and 175000 M⁻¹ s⁻¹.
For B8 the same measures were 0.166 nM, 2.82e-05 s⁻¹ and 170000 M⁻¹ s⁻¹.
For B9, the Kd was found to be 0.296 nM, the koff is 5.14e-05 s⁻¹ and the kon is 174000 M⁻¹ s⁻¹.
B10: the Kd was determined as 1.14 nM, the koff was 8.07e-05 s⁻¹ and the kon amounted to 70700 M⁻¹ s⁻¹.
Taken in the same sequence, the figures for B11 were 0.376 nM, 6.53e-05 s⁻¹ and 174000 M⁻¹ s⁻¹.
Regarding B12, the Kd amounted to 1.3 nM, the koff amounted to 8.62e-05 s⁻¹ and the kon turned out to be 66600 M⁻¹ s⁻¹.
Take B13: the Kd was 1.18 nM, the koff was determined as 9.52e-05 s⁻¹ and the kon turned out to be 80800 M⁻¹ s⁻¹.
On to B14, for which the Kd amounted to 0.232 nM, the koff was 4.83e-05 s⁻¹ and the kon turned out to be 208000 M⁻¹ s⁻¹.
Taken in the same sequence, the figures for B15 were 1.13 nM, 9.75e-05 s⁻¹ and 86000 M⁻¹ s⁻¹.
Taken in the same sequence, the figures for B16 were 0.325 nM, 5.59e-05 s⁻¹ and 172000 M⁻¹ s⁻¹.
With B17, the Kd was 0.352 nM, the koff amounted to 6.64e-05 s⁻¹ and the kon worked out at 189000 M⁻¹ s⁻¹.
Taken in the same sequence, the figures for B18 were 0.299 nM, 4.34e-05 s⁻¹ and 145000 M⁻¹ s⁻¹.
For B19 the same measures were 1.16 nM, 0.000119 s⁻¹ and 102000 M⁻¹ s⁻¹.
For the molecule B20, the Kd stood at 0.335 nM, the koff turned out to be 5.29e-05 s⁻¹ and the kon amounted to 158000 M⁻¹ s⁻¹.
For B21 the same measures were 0.284 nM, 3.97e-05 s⁻¹ and 140000 M⁻¹ s⁻¹.
For B22 the same measures were 1.4 nM, 0.000165 s⁻¹ and 118000 M⁻¹ s⁻¹.
Taken in the same sequence, the figures for B23 were 1.2 nM, 9.87e-05 s⁻¹ and 82000 M⁻¹ s⁻¹.
B24: the Kd was 1.1 nM, the koff was found to be 0.000101 s⁻¹ and the kon is 91800 M⁻¹ s⁻¹.
